In article PMC3506534, “LL-37 Induces Polymerization and Bundling of Actin and Affects Actin Structure” (PLoS ONE, 2012):
Where two headings read alike, the source gives them in different places. No end group written: not given here.

Key:
[1] = test system: LL-37-induced Mg-F-actin bundles; assay: Kinetics of dissociation of LL-37-induced Mg-F-actin bundles (light scattering); type: biochemical, rabbit; conditions: 200 mM NaCl; 4 µM MgF-actin bundled by 9 µM LL-37; 450 nm
Method: Bundling of MgF-actin was followed by increase in light scattering [20]. The time course of light scattering changes was also measured in a PTI spectrofluorometer, with both excitation and emission wavelengths adjusted to 450 nm. All fluorescence and light scattering measurements were carried out at 22°C.
This was followed by the addition of 6 µM DNase1, cofilin, or 200 mM NaCl. Bundling and dissociation was monitored as a change in light scattering.
This was followed by the addition of 6 µM DNase1, 6 µM cofilin, or 200 mM NaCl (thick arrow). Bundling and dissociation were followed as an increase and decrease in light scattering, respectively, measured at 450 nm. Presented data are representative of three independent experiments.

Mg-F-actin [2] = biological target: T1, Mg-F-actin (Oryctolagus cuniculus, UniProt P68135); assay: Extent of Mg-F-actin bundling by low speed sedimentation; type: biochemical, rabbit; conditions: for EC50: read-out: concentration for half maximal bundling
T1 construct: CaATP-G-actin was prepared from acetone dried powder derived from the back and leg muscles of rabbit by the method of Spudich and Watt; from tissue; host or cells: rabbit back and leg skeletal muscle (acetone dried powder)
Method: (§1) CaATP-G-actin was prepared from acetone dried powder derived from the back and leg muscles of rabbit by the method of Spudich and Watt that even without gel filtration yields highly homogeneous actin in purity greater than 90%. CaATP-G-actin was stored in a buffer containing 5 mM TrisHCl, 0.2 mM CaCl2, 0.2 mM ATP, 0.5 mM β-mercaptoethanol, pH 8.0 (CaATP-G-buffer). MgATP-G-actin was obtained by incubating CaATP-G-actin with 0.2 mM EGTA and 0.1 mM MgCl2 at room temperature for 5 min. MgATP-G-actin was diluted for further treatments in MgATP-G-buffer containing 5 mM MOPS, 0.1 mM MgCl2, 0.2 mM EGTA, 0.2 mM ATP and 0.5 mM DTT, pH 7.4. MgF-actin was polymerized from MgATP-G-actin or CaATP-G-actin by 30 min incubation with 2 mM MgCl2 at room temperature. The concentration of unlabeled rabbit skeletal muscle α-G-actin was determined spectrophotometrically using the extinction coefficients E^1% 290 = 11.5 cm^−1. (The optical density of actin was measured in the presence of 0.5 M NaOH, which shifts the maximum of absorbance from 280 nm to 290 nm). Molecular masses of skeletal actin, yeast cofilin, hen-lysozyme and LL-37 were assumed to be 42 kDa, 15.9 kDa, 14.3 kDa and 4.5 kDa respectively.
After addition of polycations, actin samples were centrifuged at 20,800×g at 4°C for 8 min (in an Eppendorf centrifuge). The supernatants were run using SDS-PAGE and analyzed by densitometry using the TINA 2.07d software.
Figure 3 LL-37, scrambled LL-37 and lysozyme induced bundle formation of Mg-F-actin at low and physiological (100 mM NaCl) ionic strength. (A) Kinetics of LL-37-induced bundle formation: LL-37 (2–8 µM) was added to MgF-actin (2 µM) and bundle formation was followed as an increase in light scattering at 350 nm. Presented data are representative of three independent experiments. (B) Extent of LL-37 and lysozyme induced bundle formation: LL-37 or lysozyme (0.5–9 µM) were added to Mg-F-actin (4 µM). Samples were centrifuged at 20,800×g, for 8 min and the supernatants were analyzed by SDS-PAGE and densitometry. (C) Extent of LL-37 and scrambled LL-37 induced bundle formation: LL-37 or scrambled LL-37 (2–14 µM) were added to MgF-actin (4 µM) and bundle formation was measured as in (B). The presented data are mean and standard deviation of three independent experiments in (B) and (C).

[3] = gelsolin; ref [6]; cited from earlier work
Excerpt: LL-37-induced actin polymerization and bundling was chosen as the subject of this study. LL-37 is a 37 amino acid polycationic peptide with 6 net positive charges and is the only known member in human of the cathelicidin family of host defense peptides. In addition to its antimicrobial activity, the host defense activities of LL-37 include chemoattraction, cytokine release, tissue regeneration, inhibition of immunostimulation and apoptosis,[26]. […] There, it increases the F-actin content in the cyt ...

[4] = gelsolin; ref [30]; cited from earlier work
Excerpt: (§2) Bundles of actin filaments are major contributors to the viscosity of sputum in the airways of cystic fibrosis patients. LL-37, which also has been found in the sputum, may contribute to actin bundle formation. […] Here, we studied the effect of cofilin [39] and DNase1 on the stability of LL-37-induced bundles.

[5] = test system: LL-37-induced Mg-F-actin bundles; conditions: gelsolin; ref [38]; cited from earlier work
Excerpt: as §2

MgATP-G-actin [6] = biological target: T2, MgATP-G-actin (Oryctolagus cuniculus, UniProt P68135); assay: Effect on MgCl2- or NaCl-induced polymerization of MgATP-G-actin (pyrene fluorescence); type: biochemical, rabbit; conditions: 4 µM LL-37 or lysozyme added simultaneously with salt; 2 µM MgATP-G-actin, 10% pyrene labeled; 22°C
T2 construct: CaATP-G-actin was prepared from acetone dried powder derived from the back and leg muscles of rabbit by the method of Spudich and Watt; from tissue; host or cells: rabbit back and leg skeletal muscle (acetone dried powder)
Method: as §1, with “MgF-actin was polymerized from MgATP-G-actin or CaATP-G-actin by 30 min incubation with 2 mM MgCl2 at room temperature.” left out, “Molecular masses of skeletal actin, yeast cofilin, hen-lysozyme and LL-37 were assumed to be 42 kDa, 15.9 kDa, 14.3 kDa and 4.5 kDa respectively.” left out
(§3) Labeling of Mg-F-actin at Cys-374 with pyrene maleimide was carried out according to Kouyama and Mihashi with some modifications. […] The concentration of modified actin was determined by the procedure of Bradford using unmodified actin as a standard. The extent of labeling, which was measured by using pyrene extinction coefficient E344 nm = 22000 cm^−1M^−1, was ∼100%. […]

Mg-F-actin [7] = biological target: T1, Mg-F-actin; assay: NaCl concentration dependent stability of Mg-F-actin bundles (low speed sedimentation); type: biochemical, rabbit; conditions: 4 µM MgF-actin bundled by 6 µM lysozyme or 10 µM sLL-37; 10 min room temperature
Method: as §1, with “MgF-actin was polymerized from MgATP-G-actin or CaATP-G-actin by 30 min incubation with 2 mM MgCl2 at room temperature.” left out, “Molecular masses of skeletal actin, yeast cofilin, hen-lysozyme and LL-37 were assumed to be 42 kDa, 15.9 kDa, 14.3 kDa and 4.5 kDa respectively.” left out
After addition of polycations, actin samples were centrifuged at 20,800×g at 4°C for 8 min (in an Eppendorf centrifuge). The supernatants were run using SDS-PAGE and analyzed by densitometry using the TINA 2.07d software. […]
Figure 4 NaCl concentration dependent bundling of MgF-actin by LL-37, lysozyme and sLL-37. […] The supernatants were analyzed by SDS-PAGE and densitometry. […]

Mg-F-actin [8] = biological target: T1, Mg-F-actin; conditions: lysozyme; ref [20]; cited from earlier work
Method: Bundling kinetics of MgF-actin by LL-37, lysozyme and scrambled LL-37 were studied by increase in light scattering and the extent of bundling was determined using low speed centrifugation. The bundling of MgF-actin by LL-37 is also shown by electron microscopy (Figure S1). Mg-F-actin bundle formation was very fast both with LL-37 (Figure 3A) and lysozyme. The extent of bundling was dependent on the concentration and the nature of the polycation used (Figure 3B). At low ionic strength more than 50% of Mg-F-actin was bundled upon addition of lysozyme (1 µM) to Mg-F-actin (4 µM). A similar ...

MgATP-G-actin [9] = biological target: T2, MgATP-G-actin; assay: Polymerization of MgATP-G-actin at low ionic strength (pyrene fluorescence); type: biochemical, rabbit; conditions: 2 µM MgATP-G-actin, 10% pyrene labeled; low ionic strength MgATP-G-buffer pH 7.4; 22°C; representative of three independent experiments
Method: as §1, with “MgF-actin was polymerized from MgATP-G-actin or CaATP-G-actin by 30 min incubation with 2 mM MgCl2 at room temperature.” left out, “Molecular masses of skeletal actin, yeast cofilin, hen-lysozyme and LL-37 were assumed to be 42 kDa, 15.9 kDa, 14.3 kDa and 4.5 kDa respectively.” left out
as §3

## [Cl-].[Na+] [NaCl]
[1]
  rate and completeness of dissociation: complete and very fast

## GLKLRFEFSKIKGEFLKTPEVRFRDIKLKDNRISVQR [Scrambled LL-37]
Mg-F-actin [2]; sLL-37 10 µM, 4 µM MgF-actin, low ionic strength
  MgF-actin bundled: more than 60%

## Gelsolin
[3]
  effect on LL-37 antibacterial activity: restore
[4]
  effect on sputum viscosity: significantly reduce the viscosity of sputum
[5]
  dissociation of LL-37-induced actin filament bundles: dissociate LL-37-induced actin filament bundles

## lysozyme: Hen lysozyme, antibacterial polycationic protein, 14.3 kDa, from Sigma
MgATP-G-actin [6]
  effect on polymerization induced by 2 mM MgCl2 or 100 mM NaCl: no inhibitory effect
Mg-F-actin [2]; 4 µM Mg-F-actin, low ionic strength
  EC50: 1 µM
Mg-F-actin [2]; 4 µM Mg-F-actin, physiological ionic strength (100 mM NaCl)
  EC50: 6 µM
Mg-F-actin [2]; lysozyme 1 µM, 4 µM Mg-F-actin, low ionic strength, 20,800×g 8 min, SDS-PAGE densitometry, three independent experiments
  Mg-F-actin bundled: more than 50%
Mg-F-actin [7]
  NaCl concentration at which bundle stability was decreased: 50 mM
  NaCl concentration in which bundles completely dissociated: 150 mM
Mg-F-actin [8]
  rate of Mg-F-actin bundle formation: very fast
MgATP-G-actin [9]
  concentration giving polymerization of MgATP-G-actin: 1 µM
